# ± gives the uncertainty stated by the source.
# B1: RUN and FYVE domain-containing protein 1, residues 639 to 698; numbered along this chain, Q96T51 (parent)
# chain: WLKDDEATHCRQCEKEFSISRRKHHCRNCGHIFCNTCSSNELALPSYPKPVRVCDSCHTL
# Variants of: B1
# Experiment: abundance fitness (aPCA) (normalised: wild type 0, dead -1); higher = more abundant; growth selection in yeast, the domain comes from the species named
# Details: Homo sapiens
row,Variant,abundance fitness
1,WLKGDEATHCRQCEKEFSISRRKHHCRNCGHIFCNTCSSNELALPSYPKPVRVCDSCHTL [D4G],-0.228 ± 0.056
2,WLKIDEATHCRQCEKEFSISRRKHHCRNCGHIFCNTCSSNELALPSYPKPVRVCDSCHTL [D4I],-0.241 ± 0.058
3,WLKRDEATHCRQCEKEFSISRRKHHCRNCGHIFCNTCSSNELALPSYPKPVRVCDSCHTL [D4R],-0.22 ± 0.037
4,WLKTDEATHCRQCEKEFSISRRKHHCRNCGHIFCNTCSSNELALPSYPKPVRVCDSCHTL [D4T],-0.27 ± 0.05
5,WLKADEATHCRQCEKEFSISRRKHHCRNCGHIFCNTCSSNELALPSYPKPVRVCDSCHTL [D4A],-0.466 ± 0.069
6,WLKHDEATHCRQCEKEFSISRRKHHCRNCGHIFCNTCSSNELALPSYPKPVRVCDSCHTL [D4H],-0.192 ± 0.097
7,WLKVDEATHCRQCEKEFSISRRKHHCRNCGHIFCNTCSSNELALPSYPKPVRVCDSCHTL [D4V],-0.351 ± 0.052
8,WLKKDEATHCRQCEKEFSISRRKHHCRNCGHIFCNTCSSNELALPSYPKPVRVCDSCHTL [D4K],-0.068 ± 0.06
9,WLKLDEATHCRQCEKEFSISRRKHHCRNCGHIFCNTCSSNELALPSYPKPVRVCDSCHTL [D4L],-0.298 ± 0.039
10,WLKNDEATHCRQCEKEFSISRRKHHCRNCGHIFCNTCSSNELALPSYPKPVRVCDSCHTL [D4N],-0.018 ± 0.044
11,WLKYDEATHCRQCEKEFSISRRKHHCRNCGHIFCNTCSSNELALPSYPKPVRVCDSCHTL [D4Y],-0.18 ± 0.064
12,WLKFDEATHCRQCEKEFSISRRKHHCRNCGHIFCNTCSSNELALPSYPKPVRVCDSCHTL [D4F],-0.234 ± 0.058
13,WLKPDEATHCRQCEKEFSISRRKHHCRNCGHIFCNTCSSNELALPSYPKPVRVCDSCHTL [D4P],-0.494 ± 0.061
14,WLKEDEATHCRQCEKEFSISRRKHHCRNCGHIFCNTCSSNELALPSYPKPVRVCDSCHTL [D4E],-0.156 ± 0.059
15,WLKCDEATHCRQCEKEFSISRRKHHCRNCGHIFCNTCSSNELALPSYPKPVRVCDSCHTL [D4C],-0.971 ± 0.17
16,WLKSDEATHCRQCEKEFSISRRKHHCRNCGHIFCNTCSSNELALPSYPKPVRVCDSCHTL [D4S],-0.158 ± 0.044
17,WLKDDNATHCRQCEKEFSISRRKHHCRNCGHIFCNTCSSNELALPSYPKPVRVCDSCHTL [E6N],-0.121 ± 0.064
18,WLKDDDATHCRQCEKEFSISRRKHHCRNCGHIFCNTCSSNELALPSYPKPVRVCDSCHTL [E6D],-0.078 ± 0.072
19,WLKDDFATHCRQCEKEFSISRRKHHCRNCGHIFCNTCSSNELALPSYPKPVRVCDSCHTL [E6F],-0.295 ± 0.066
20,WLKDDCATHCRQCEKEFSISRRKHHCRNCGHIFCNTCSSNELALPSYPKPVRVCDSCHTL [E6C],0.009 ± 0.046
21,WLKDDAATHCRQCEKEFSISRRKHHCRNCGHIFCNTCSSNELALPSYPKPVRVCDSCHTL [E6A],-0.085 ± 0.043
22,WLKDDKATHCRQCEKEFSISRRKHHCRNCGHIFCNTCSSNELALPSYPKPVRVCDSCHTL [E6K],0.126 ± 0.053
23,WLKDDHATHCRQCEKEFSISRRKHHCRNCGHIFCNTCSSNELALPSYPKPVRVCDSCHTL [E6H],-0.185 ± 0.057

row,Variant,abundance fitness
1,WLKDDIATHCRQCEKEFSISRRKHHCRNCGHIFCNTCSSNELALPSYPKPVRVCDSCHTL [E6I],0.029 ± 0.059
2,WLKDDLATHCRQCEKEFSISRRKHHCRNCGHIFCNTCSSNELALPSYPKPVRVCDSCHTL [E6L],-0.425 ± 0.044
3,WLKDDGATHCRQCEKEFSISRRKHHCRNCGHIFCNTCSSNELALPSYPKPVRVCDSCHTL [E6G],0.001 ± 0.043
4,WLKDDMATHCRQCEKEFSISRRKHHCRNCGHIFCNTCSSNELALPSYPKPVRVCDSCHTL [E6M],-0.316 ± 0.052
5,WLKDKEATHCRQCEKEFSISRRKHHCRNCGHIFCNTCSSNELALPSYPKPVRVCDSCHTL [D5K],-0.069 ± 0.056
6,WLKDHEATHCRQCEKEFSISRRKHHCRNCGHIFCNTCSSNELALPSYPKPVRVCDSCHTL [D5H],-0.426 ± 0.12
7,WLKDMEATHCRQCEKEFSISRRKHHCRNCGHIFCNTCSSNELALPSYPKPVRVCDSCHTL [D5M],0.058 ± 0.044
8,WLKDCEATHCRQCEKEFSISRRKHHCRNCGHIFCNTCSSNELALPSYPKPVRVCDSCHTL [D5C],-0.17 ± 0.069
9,WLKDYEATHCRQCEKEFSISRRKHHCRNCGHIFCNTCSSNELALPSYPKPVRVCDSCHTL [D5Y],-0.258 ± 0.07
10,WLKDEEATHCRQCEKEFSISRRKHHCRNCGHIFCNTCSSNELALPSYPKPVRVCDSCHTL [D5E],-0.134 ± 0.056
11,WLKDAEATHCRQCEKEFSISRRKHHCRNCGHIFCNTCSSNELALPSYPKPVRVCDSCHTL [D5A],-0.21 ± 0.055
12,WLKDIEATHCRQCEKEFSISRRKHHCRNCGHIFCNTCSSNELALPSYPKPVRVCDSCHTL [D5I],-0.341 ± 0.11
13,WLKDWEATHCRQCEKEFSISRRKHHCRNCGHIFCNTCSSNELALPSYPKPVRVCDSCHTL [D5W],-0.531 ± 0.055
14,WLKDSEATHCRQCEKEFSISRRKHHCRNCGHIFCNTCSSNELALPSYPKPVRVCDSCHTL [D5S],-0.209 ± 0.039
15,WLKDVEATHCRQCEKEFSISRRKHHCRNCGHIFCNTCSSNELALPSYPKPVRVCDSCHTL [D5V],-0.313 ± 0.047
16,WLKDGEATHCRQCEKEFSISRRKHHCRNCGHIFCNTCSSNELALPSYPKPVRVCDSCHTL [D5G],-0.388 ± 0.042
17,WLKDNEATHCRQCEKEFSISRRKHHCRNCGHIFCNTCSSNELALPSYPKPVRVCDSCHTL [D5N],0.004 ± 0.045
18,WLKDLEATHCRQCEKEFSISRRKHHCRNCGHIFCNTCSSNELALPSYPKPVRVCDSCHTL [D5L],-0.547 ± 0.047
19,WLKDREATHCRQCEKEFSISRRKHHCRNCGHIFCNTCSSNELALPSYPKPVRVCDSCHTL [D5R],-0.57 ± 0.043
20,WLKDQEATHCRQCEKEFSISRRKHHCRNCGHIFCNTCSSNELALPSYPKPVRVCDSCHTL [D5Q],-0.708 ± 0.069
21,WLKDPEATHCRQCEKEFSISRRKHHCRNCGHIFCNTCSSNELALPSYPKPVRVCDSCHTL [D5P],-0.537 ± 0.067
22,WLKDTEATHCRQCEKEFSISRRKHHCRNCGHIFCNTCSSNELALPSYPKPVRVCDSCHTL [D5T],-0.178 ± 0.058
